Substrate in data set [1]: CC1=C(C(=O)O)N2C(=O)[C@@H](NC(=O)CCC[C@@H](N)C(=O)O)[C@H]2SC1
Put plainly: purified protein, by the assay type. The settings on record: other: saturated concentration of the other substrate (300 μM DAOC or α-KG); pH 7.3; 29.0 °C.

Substrate in data set [2]: O=C(O)CCC(=O)C(=O)O
Put plainly: purified protein, by the assay type. Conditions: other: saturated concentration of the other substrate (300 μM DAOC or α-KG); pH 7.3; 29.0 °C.

B1: DAOC hydroxylase (Streptomyces clavuligerus) (protein)
chain: MADTPVPIFNLAALREGADQEKFRECVTGMGVFYLTGYGAGDKDHRLATDTAMDFFANGTEAEKAAVTTDVPTMRRGYSALEAESTAQVTRTGSYTDYSMSFSMGISGNVFPSPEFERVWTEYFDKLYAAAQETARLVLTASGGYDAEIVGSLDELLDADPVLRLRYFPEVPEHRSAEHEPRRMAPHYDLSIITFIHQTPCANGFVSLQAEIGGELVSLPVVEDAVVVMCGAMAPLATQGALPAPRHHVRSPGAGMREGSDRTSSVFFLRPTTDFSFSVAKARSYGLAVDLDMETATFGDWIGTNYVTMHAKNEPQAG
For orientation: Km means the substrate concentration at which the rate is half of its maximum. For the protein B1, the values for the Km in data set [1] and in data set [2] were 50 µM and 10 µM, respectively.
